Data: PMC11257942

Biological target: major core protein A10 of vaccinia virus (gene product of A10) (vaccinia virus (VACV) strain Western Reserve (WR))
Assay: cryo-EM structure

major core protein A10 of vaccinia virus (gene product of A10) (natural protein)
stoichiometry N: 3
